In the DeepSol protein solubility set:

assay: soluble on expression in E. coli; label from the status in PepcDB or PDB records

Row | Sequence | soluble on expression in E. coli
1 | MGSDKIHHHHHHMNRIQLSQLAVLATVAETSSFRKAAEELGIAPSAVSHAVSALEASLGVRLLARTTRSVAPTEEGRQLLQKLAPALADIGTALETLAENKSNPAGPLRITMPALAAEDLIVPRLGDFLGLYPDIQLELITNDQFEDIVEKGFDAGLRLGEHLETDMVAVKASGPISGTIIGAPSYFERHPLPVHPHDLMEHRCIRRRFSSGRIYRWELEKHGKQIAVDVPDVLTLADQRLIRLAALKGVGLAFVFDQRVDKDIREGRLIRVLEDWCPPFDGFYIYYPTRRQMRPALRAFVDFFRHRS | not soluble
2 | MLVLIRVFNTLGRRKEVFNPYSPPLVGMYVCGPTVYDYTHIGHARTFTVFDAIKRYLRLRGYDVFHVQNITDIDDKIINRAREEGRDWREIVREYSRDYLEGLGSLGIQIDHHPRVTDHISDIIRFIEGLIEKGYAYVAESGSVYFEVDKYPGYGMLSGHLSKEAWRQEEDVLHEKKSPYDFALWKAAKPGEPSWESPWGRGRPGWHIECSVMSSRYLGSRIDIHGGGVDLVFPHHENERAQSESYFGHRWVRYWLHASYLTIKGEKMSKSLGNIIPLREALREWGPGPLRLWLLSSHYRSNLDYSEEALGQYRRLYERLRQAADSIGRRLERAEPKGRLGEGELETVERLKGVVRRWHEAMSDDFNMGKAMSSLWEFTTIYFREVEQTESYTLLWLSWRILTGFNSVYAFAPDIVEARRPERSLEDSLVQALVDVRSELRRRKMYDLADEIRSRLAQLGFVLHDKGEKTEWRRR | soluble
3 | MGSDKIHHHHHHMKSRFLLKIFIFLAVFGVDSVRAADCTEKTFKTGTVCVCSLDSCDEIPPLDITMGQAALYTTSHTGARLHRDVIYATDTEPFGTLHMTIDSSKKYQTIQGFGSTFSDASGANLKSLPDKLSDLIMKQYFSDTGLNLQFGRVPIASTDFSGRVYSYNDVANDYSMQNFNLTKEDFQWKIPYIKNAQKYNPNLKLFAAPWAAPGWLKTTKEMTGPGALNGKAGDNYHQAYAKYFVRFLEEYGKSGISFWGLSTQNQPTLGSDKKNKIQSTLFTAETQRDFIKTDLGPALAASSSGKDVKLLILDDNRGNLPKWADTVLNDMDAAKYVGGIGVHAYQDGETDNHLDETHKKHPNFFILGTEASEGYGSKDTHVDYGNWDRAADTASDILDNMNNWMTGWTERNLILDALGGPSWVSDYTDAPVIAFPAMAQFYKQPMFYAIAHFSHFIKPGAVRIDHSLNVIELEVETTAFLNPDGSKVIVMLNKGSLVSTEHTVVVQDAADSRNHYHFTLPHRAITTLYIQTSQF | not soluble
4 | LDIQMTQSPSSLSASLGERVSLTCRASQEISGYLYWLQQKPDGTIKRLIYAGSTLDSGVPKRFSGSRSGSDYSLTISSLESEDFADYYCLQYASYPRTFGGGTKVEIKRTVAAPSVFIFPPSDEQLKSGTASVVCLLNNFYPREAKVQWKVDNALQSGNSQESVTEQDSKDSTYSLSSTLTLSKADYEKHKVYACEVTHQGLSSPVTKSFNRGECGAGA | soluble
5 | MEYRITGKGVEISEAIKNYLEKRLDKIDRVIYDDDLVSFNVRIEKDGKNQYVVKFNMNLKGNIINVEERHPDIYTAIDFASDALEKQVKRLKERLKNHPHRSSALVETPLEEPGEFSPSDKVSSVKRVSLLNLDLDEAVMQMDELNHRFLVFRNVNTGEINLLYRDENGDIHLIEMAE | not soluble
6 | MSASGLLVEKSGPLSLIQDFGRFGLAHIGITQGGPVDDYAYSWANHLLGNRVNCSAIEITLGNACFIALQDCHLAICGGDLNASVDGHPIANWSDFSIKKGQKLQFGMAKNGLRAYLAVKGGFNVPEHLGSSSTVLREALGGLEANGNALKAGDVLPFDAHSLPNHKPRIMTFRFKPDYNLPITLRVIEGYQCDDFSVEAKEKFYSGSFAISPDSNRMGYRLEGNTVKPPYDGILSEGIALGAIQIPHDGNPIVLLNDHQTIGGYPKLGCVARIDLPRLAQAKPGQKVRFVKGDRQGLQDVWCQWAQFFGY | not soluble
7 | MCLVNEFVSNSNMKPALNVSGDEKELILQLRRYLEEKLTYLLDQNGTVSIGVSGGSMPRVFSKAILSLPQEQLNWKRIRIFMVDERNVDLDSEESNQGEYLRLFPNELRDVFVPMQIFKDPCLTAQHYEISLRKYLLPEQLNNTARFDILFLGVGPDGHTASIFPGKERLEKITELNWVSVITDSPKPPPSRITLTLQTLQHAKNVAFIICGKQKAEIVRGICDRDQKYPAAQARPFNDKLTLFLDEDAATGVPDRDSSDSDSPPPFDG | not soluble
8 | SLSKKATYPKVMCTQHPDSASKYISTQEEPGEAIEAAVVFGCDEYMPDYEGKATPYHQNVQIVSRFIEETDLIPGKDIFITPRAPSAAQENRFRQLMVMMSIAEANHGALEYSDVQAINEFVHPMTGTVGEILDAQQHMVDVGELAKKEFGVAMEVPRIIPLIEDAPALLHAKELAENTLLSWEKRFGAAPEKFRVFLGKSDSALSFGHVASTLSCKYAISGISELDLELDTSTGIIFGAGTLPFRGHLSLKNAENFFREYRGIGTITLQSAVRYSHDKGEAEALVRLAEERLPESPEIYSGEEKEEIVNLIGIFGARYNRIIREMSCTINQLAGLLPQQRDRLMHKGTGGYSRNVPDISGLVCLCRKDVGKELSASMPAEDLNLPRAIKFTGALYSIGLPPEFIGTGTALEEAREKLGEEACERLLKKYFPSLASDLSFASGYLDLNVASRFLPEACLKEIRKDIEVLRDTFSLKVQPEPSYRILLEMMQPDLLQAGTKGNCMDEEVSQLVCSTLTKMGKIRKALG | not soluble
9 | MGSDKIHHHHHHMSRHQNIPALSDVSSTNFSNIRLIATDMDGTLTRRGKFTTPLLQALEDLAAVDIKVLIVTGRSAGWVSGLSSLMPVAGAIAENGGLYFPPGNHKPVVLTPVSDLAKHRQHLATTFENLQTKFPQIQESADNRFRVTDWTFDVADLNQDELQTLDSLCQQMGWGFTYSNVQCHIKPQGQDKAVGLLQVLREYLPQYSPEQIVTVGDSPNDESLFERRYFPVSVGVANVLEYMNQLKYHPAYITNAAEGEGFCELSSYILKSLHIPS | not soluble
10 | MGSDKIHHHHHHQMEERLGNTSQELQSLQVQNIKLAGSLQHVAEKLCRELYNKAGAHRCSPCTEQWKWHGDNCYQFYKDSKSWEDCKYFCLSENSTMLKINKQEDLEFAASQSYSEFFYSYWTGLLRPDSGKAWLWMDGTPFTSELFHIIIDVTSPRSRDCVAILNGMIFSKDCKELKRCVCERRAGMVKPE | not soluble
11 | MGSDKIHHHHHHMDISIGDDSNGAVISIVGSHLDKLNLNGTAILLERYDDSPTHFGSAFLFPYANRVRNGEFTLDGKRYFLPKDDENNSIHGLVLSKKFDLVEKIENSVTMRYIMADECYPSPIEIFITHTVSEGKYTCRVKASNRGLTRAPVSAGFHPYFLYNGRWAIKKPRDTWKLEYDGQFPTGKMDKFLFEEDSFMHEFDNQFFADEDIVVDMGSHMIQIERENMPFFVIYNGKYSGGKSVAIEPMMSAVDAFNNGIGLRIVNPGESIEFAYSVEIRE | not soluble
12 | MGSDKIHHHHHHMAKKHRKESLDALFREKVLLEMLKIAGVGMWTYSTETGRLRYIGFADTIHRHDELQYVDPADYLKLMNGEDLQTVTQFMADIHAGRPPQEGIRYKIHGNGEDFYLENHVVTCQPLGNGFYYLKGYVKNITAQVMEANRLCIEKERTEQADRLRSAFFAHVSRELRGPLNRIEELASQMVHAESVEEREECFHRIQENRRMAMKIADALHAVSQLPVSTYEPYHSPMQLCLIYRDLLMENGYSHNPEDGEQEENANFLSLLFS | not soluble
13 | MTYIALIGDIIQSKQLTDRSKVQKTLAAYLDDLNKTFAPYIISKLSLTLGDEFQGLFQVDTPIFHLIDLINHHMDIPIRFGVGVGSILTDINPDISIGADGPAYWHAREAIRYIHQKNDYGNTTLALRTGHHNQDDVLNSLLAAGDAIKANWRASQWEIFDTLLDLGIYEEYFDQQRLGKQLSLSSSALSKRLKSSHVKIYLRTRQSALNCLKQIKEETDD | not soluble
14 | MGSDKIHHHHHHMALVKCQSLNEIPMTATNHMDTSVQHVDIAIVGGAMAGATLALALARLSLSAARPLSIALIEAHLPDKQHPGFDARSIAIAHGSIFELSRLGLWPKLAHLGTAIENIHVSDRGHFGMTELNAAQFHLDALGQVVELERVGQVLFNELNKSEVKLYCPAKLAQVEPAVEGHTLVLDTGKRLKAKLVVAADGLQSKVRSSFDLPVTQVAFEQTAIIANIQTDKPHQHLAYERFTQTGPLALLPMADSQGKPRLSLVWALDDARAKQMQTAPKAEFLAALQQAFGYRAGTFIDVSARHAYPLNLSYMPRPIHHRCVFIGNAAQTLHPIAGQGFNLGLRDVVSLLEVLKTALDQGDDIGSAAVTHAYLNAREHDRNSTIRNIEFLVRGFSNQYWPMALGRNLGLRLLSWFPPLKTPVAQKAMGWK | not soluble
15 | MENKVVEEKQVDKIPLMSPCKMGKFELCHRVVLAPLTRQRSYGYIPQPHAILHYSQRSTNGGLLIGEATVISETGIGYKDVPGIWTKEQVEAWKPIVDAVHAKGGIFFCQIWHVGRVSNKDFQPNGEDPISCTDRGLTPQIMSNGIDIAHFTRPRRLTTDEIPQIVNEFRVAARNAIEAGFDGVEIHGAHGYLIDQFMKDQVNDRSDKYGGSLENRCRFALEIVEAVANEIGSDRVGIRISPFAHYNEAGDTNPTALGLYMVESLNKYDLAYCHVVEPRMKTAWEKIECTESLVPMRKAYKGTFIVAGGYDREDGNRALIEDRADLVAYGRLFISNPDLPKRFELNAPLNKYNRDTFYTSDPIVGYTDYPFLETMT | soluble
16 | MGSDKIHHHHHHMSEQNWTDTGRFDNKAAEWDANAIRAALADAVARAIIAHMPVGKPANALEFGCGTGLVTTRIAPHCLQLTAVDSSREMLRMLGEKIAASAIANVTPLHLDFSRPEEAAGLDRDYDFVYSSMTLHHIPDTASFLRELIGHMSPGGALAIADLDAEDGLFHNDATEKVHHGFDRTELQALLESAGFAGVSFMTAHIIEKKNREGNLKNYPVFLVTAVKPKA | not soluble
17 | MAGTISDYGGRQQIWNLGNNIIDTKKLVDLELQALEMKKSPYTTQKQTLTNEKNVYASMKKEFGNLVQVFKDLYAFKGDEKKTTLSKDGFMKAQADAAAIPGTYTITVERVAERHQITTAPLTPSKTPESMEQKFSLDLKLGVDDVFQINGKEVKISKDMTYKDLVNKINNGNYGASVYTLGDQLFFTSTTAGEAGELKLTDGANGFLQNIGLVTSAKNPDGTNVVAHQVTGAINAEYTINGIKGTSKTNKIDTIPGLTINLEKETTEPIKLTIEDSDIKNSIDLIKKMKDEYNKAVKSLDLFAGENGVMQGSNVSFAINNAMTGIFKFSQDDKYLFSFGIQIDKKGNMTLDEEKLKTAFKENPESTKQFFFGLNGLGHDTEKKLDGIFGDEGIIGKRSKSIEKQVTDLERKIQDIDTVNKEKQKTIIDKYAKLESQLALLDSQLKTIQAMTKTKSDD | not soluble
18 | GPGSMPPTHLLPTIDVSLRDKLSRFVESRGLLQMALEIATDDERRFDLAVQLKQLLLAHEIASAANVASHWKQVGDIALEQGYFEMAIESLEKCNDWSGLLLIYTSLNDMEAISRLGDRCLQRGQANLAFTCYHLTQRHAECVELLQKTGKTGDAAFYARTYYPSLIEDAVAKWRVSVASIPRVSQALASPAAYPNLFPSLRNVDLLPPKGSEADAPLNAQPPPPGASASLHGSCTAPTVADWFQPAAAAPQQLMHPPPLPDNVDSEPSGMQELADEEETWGED | soluble
19 | MSLKYVDEFREPEKAEALCREITKLSHQLEKPIKIMEVCGGHTHSIFKYGIEEILPQTIELIHGPGCPVCVMPKGRLDDAIAISQNHNVIFATFGDAMRVPGSKTSLLQARAQGADIRMVYSPLDSLQIAKDHPDREVVFFALGFETTAPSTGFTIVQAAAEEIHNFSMFSNHVLVIPALKALLDNPDLQLDGFVGPGHVSMVIGSDPYQFISQQYNKPIVVSGFEPLDILQSIWMLLQQIVENRCEVENQYNRIVQKSGNTVALQAINKVFAVRDSFDWRGLGDIPYSGLKIKPEYAQFDAELKFTIPNLKVADHKACKCGEILKGVLKPWECKVFGTACTPETPIGTCMVSSEGACAAYYKYGRLSTIAKRTITQKPKITQEPLPACGFSLDEGHHHHHH | not soluble
